Measured values: US20080207488A1, “Method for Detecting Peptides Comprising a Cross-B Structure” (priority 2005, published 2008)

Legend:
Congo red fluorescence = format: physicochemical; details: marketed biopharmaceutical within expiry limits, five μL tested
Method: Background signals from buffer, buffer with Congo red and protein/peptide solution without Congo red were subtracted from corresponding measurements with protein solution incubated with Congo red. Fluorescence was measured in triplicate on a Hitachi F-4500 fluorescence spectrophotometer (Ltd., Tokyo, Japan).
Formulated protein therapeutics were obtained from the local hospital pharmacy and were used as supplied by the manufacturers. […] Lyophilized therapeutics were dissolved according to the manufacturers recommendations. […] Other protein therapeutics were only kept at 4° C., and assayed for the presence of cross-β structure conformation at shown time points. Enhancement in fluorescence of ThT and Congo red was measured with all formulated protein therapeutics. For this purpose, proteins were diluted to the indicated concentrations. […] Zinc-insulin was diluted tenfold in the activation assay, GH was diluted to a final concentration of 500 μg ml^−1. Activation of factor XII and prekallikrein by the therapeutics was tested in the chromogenic factor XII assay (see above). […] After coating, plates were blocked with Blocking Reagent (Roche Diagnostics, Almere, The Netherlands).
Protein therapeutics were obtained from the local hospital pharmacy and analyzed within the expiry limits as stated by the manufacturers.

sRAGE = target: T1, sRAGE (Homo sapiens, UniProt Q15109); assay: Biacore surface plasmon resonance, binding to immobilized sRAGE; details: Hb-AGE 32, amyloid γ-globulins 62.5, albumin-AGE 3.9 μg ml^−1
T1 construct: comprises three domains spanning amino-acid residues 23-325; His-tag with thrombin cleavage site (N); made in house; host or cells: 293E cells (printed as '293E hamster embryonic kidney cells')
T1 sequence (Q15109 23-325): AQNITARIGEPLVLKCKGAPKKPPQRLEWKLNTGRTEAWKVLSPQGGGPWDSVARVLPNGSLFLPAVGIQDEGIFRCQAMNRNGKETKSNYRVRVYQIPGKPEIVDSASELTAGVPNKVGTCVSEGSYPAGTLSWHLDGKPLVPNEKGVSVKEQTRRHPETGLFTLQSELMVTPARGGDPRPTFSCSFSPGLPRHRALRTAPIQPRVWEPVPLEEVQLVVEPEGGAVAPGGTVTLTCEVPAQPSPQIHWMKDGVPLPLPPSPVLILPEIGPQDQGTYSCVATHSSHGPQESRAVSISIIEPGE
Excerpt: The soluble extracellular part, of the receptor for AGE (sRAGE) was cloned, expressed and purified as follows (Q.-H. Zeng, Prof. P. Gros, Dept. of Crystal- & Structural Chemistry, Bijvoet Center for Biomolecular Research, Utrecht University, Utrecht, the Netherlands). Human cDNA of RAGE was purchased from RZPD (clone IRALp962E1737Q2, RZPD, Berlin, Germany). For PCRs, the gagatct[…] forward primer was used comprising a BglII site, and the gcggccgc[…] reverse primer with a NotI site. The soluble extracellular part of RAGE comprises three domains spanning amino-acid residues 23-325. The PCR product was cloned into a pTT3 vector, containing an amino-terminal His-tag and a thrombin cleavage site. The sRAGE was expressed in 293E hamster embryonic kidney cells at the ABC-protein expression facility (Utrecht University, Utrecht, the Netherlands). […]
Binding of cross-β structure conformation containing peptides/proteins was studied using surface plasmon resonance technology with a Biacore 2000 apparatus (Biacore AB, Uppsala, Sweden). […] Binding of albumin-AGE was determined with a solution of 3.9 μg ml^−1 albumin-AGE in running buffer. albumin-AGE was filtered on a Millex-GV 0.22 μm filter unit (Millipore). […] Binding of Hb-AGE was also tested after centrifugation for 10 min. at 16,000*g alternative to filtration. tPA activation before and after filtration was assessed with a Plg-activation assay. […]

platelets = assay: Platelet aggregation assay; format: cell-based, human; details: 512-fold diluted plasma spiked with 250 μg/ml BSA-AGE, tenfold diluted
Method: In a next series of experiments, diluted plasma was enriched with a 250 μg/ml BSA-AGE spike and subsequently added to tPA F-biotin-Streptavidin-Sepharose. […] Results are compared to platelet activating properties of the spiked plasma before depletion of BSA-AGE.
Freshly drawn human aspirin free blood was mixed gently with citrate buffer to avoid coagulation. Blood was spinned for 15′ at 150*g at 20° C. and supernatant was collected; platelet rich plasma (PRP) with an adjusted final platelet number of 200,000 platelets/μl. Platelets were kept at 37° C. for at least 30′, before use in the assays, to ensure that they were in the resting state. For the aggregometric assays, 270 μl platelet solution was added to a glass tube and prewarmed to 37° C. A stirring magnet was added and rotation was set to 900 rpm, and the apparatus (Whole-blood aggregometer, Chrono-log, Havertown, Pa., USA) was blanked. A final volume of 30 μl of tester solution was added, containing the agonist of interest (buffer, control, diluted plasma with BSA-AGE, before and after contacting tPA F-biotin-Streptavidin-Sepharose), prediluted in HEPES-Tyrode buffer pH 7.2. Aggregation was followed in time by measuring the absorbance of the solution, that will decrease in time upon platelet aggregation. […] Aggregation was recorded for 15′ and expressed as the percentage of the transmitted light (0-100%).

| Substance | Fluorescence (a.u. +/− SD) CR (Congo red fluorescence) | binding to immobilized sRAGE (sRAGE) | platelet aggregation (platelets) |
| --- | --- | --- | --- |
| Abciximab: abciximab, an inhibitor of blood platelet aggregation (ReoPro, Centocor) | 25 +/− 1 a.u. | – | – |
| albumin-AGE: advanced glycation end-product modified bovine serum albumin | – | bind | Platelets readily aggregate |
